Laboratory results published in patent publication US20260274985A1 (MYTHIC THERAPEUTICS, published 2026).
Residue numbers refer to the chain shown, from its start. Values belong to the binder of their own block, whether it stands above or below them.

Columns and labels:
[1] = target: T1, Human TROP2 Protein, His Tag (Acro Biosystems) (human, UniProt P09758 27-274); test: BLI (Octet) [2/2]
T1 construct: Bought antigen used at 50 nM in the Octet screen; also called TACSTD2; not shown: His tag
T1 sequence (looked up): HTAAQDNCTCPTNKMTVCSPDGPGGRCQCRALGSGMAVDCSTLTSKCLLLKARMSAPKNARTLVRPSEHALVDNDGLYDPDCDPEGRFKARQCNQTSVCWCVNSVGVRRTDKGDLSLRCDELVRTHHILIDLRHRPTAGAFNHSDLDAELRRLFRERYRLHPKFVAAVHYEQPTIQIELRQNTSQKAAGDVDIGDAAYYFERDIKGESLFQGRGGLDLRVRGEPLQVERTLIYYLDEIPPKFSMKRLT
Protocol: After allowing for four days of protein expression, cell culture supernatants were collected, quantified by SDS-PAGE analysis (DNS), and the pH dependence of the variant was evaluated using biolayer interferometry (BLI) on an Octet RED 96e instrument. Briefly, cell culture supernatants were diluted based on qualitative expression level of the variant determined by visual examination of SDS-PAGE gels, 5 μL of cell culture supernatant was diluted into 195 μL of 1×PBST, pH 7.4 for high expressors, 25 μL of cell culture supernatant was diluted into 175 μL of 1×PBST, pH 7.4 for medium expressors and 100 μL of cell culture supernatant was diluted into 100 μL of 1×PBST, pH 7.4 for low expressors for loading onto the sensor tips. The resulting diluted supernatants were then captured on an anti-human Fc sensor (Forte Bio). A baseline was established using 1×PBST (50 mM Potassium Phosphate Buffer+150 mM NaCl+0.05% Tween 20) pH 7.4, and the sensor was associated with 50 nM of TROP2 (Human TROP2 Protein, His Tag, Acro Biosystems) in 1×PBST pH 7.4 for 120 sec to generate an association curve. In the dissociation phase, the antibody-antigen complex on the sensor was exposed to 1×PBST pH 7.4 or pH 5.4, for 300 sec. Association and dissociation phase curves were examined for the starting ABPC antibody (with no substitutions) and each corresponding antibody variant at pH 5.4 and pH 7.4 to inform on two criteria: a) enhanced dissociation (i.e., higher koff values) at pH 5.4 due to histidine or alanine substitution compared to the starting ABPC, (with no substitutions), and b) reduced dissociation at pH 7.4 (i.e., lower koff values) compared to pH 5.4 in the antibody variant itself and with the starting ABPC (with no substitutions). […] It was also noted that while some mutations obliterated TROP2 binding, others were tolerated with little or n change in TROP2 binding kinetics.

[2] = target: T2, Human TROP2 Protein, His Tag (Acro Biosystems) (human, UniProt P09758 27-274); test: BLI (Octet)
T2 construct: Bought protein; not shown: His tag
T2 sequence (looked up): T1 sequence (looked up)

[3] = target: T3, Human TROP2 Protein, His Tag (Acro Biosystems) (human, UniProt P09758 27-274); test: BLI (Octet) [1/2]
T3 construct: also called TACSTD2; not shown: His tag
T3 sequence (looked up): T1 sequence (looked up)

B3: MYT11772 (antibody, V domains shown)
VH: QVQLQESGPGLVKPSETLSLTCTVSGGSISSYGVHWIRQPPGKGLEWIGVIWTSGVTDYNSALMGRVTISVDTSKNQFSLKLSSVTAADTAVYYCARDGDYDRYTMDYWGQGTLVTVSS
VL: DIVMTQSPDSLAVSLGERATINCRASKSVSTSGYSYMHWYQQKPGQPPKLLIYLASNLESGVPDRFSGSGSGTDFTLTISSLQAEDVAVYYCQHSRELHYTFGQGTKLEIK
notes: hu7E6SVG variant, His at LCV position 99 (L3 07); screened as IgG in Expi293 supernatant
- binding result [1]: binds

B4: MYT11768 (antibody, V domains shown)
VH: B3 VH
VL: B3 VL with S95H, H99P
notes: hu7E6SVG variant, His at LCV position 95 (L3 03); screened as IgG in Expi293 supernatant
- binding result [1]: no binding (tested: 50 nM)

B5: MYT11762 (antibody, V domains shown)
VH: B3 VH
VL: B3 VL with N57H, H99P
notes: hu7E6SVG variant, His at LCV position 57 (L2 04); screened as IgG in Expi293 supernatant
- binding result [1]: binds

B6: MYT11763 (antibody, V domains shown)
VH: B3 VH
VL: B3 VL with L58H, H99P
notes: hu7E6SVG variant, His at LCV position 58 (L2 05); screened as IgG in Expi293 supernatant
- binding result [1]: binds

B7: MYT11774 (antibody, V domains shown)
VH: B3 VH
VL: B3 VL with H99P, T101H
notes: hu7E6SVG variant, His at LCV position 101 (L3 09); screened as IgG in Expi293 supernatant
- binding result [1]: binds

B8: MYT11771 (antibody, V domains shown)
VH: B3 VH
VL: B3 VL with L98H, H99P
notes: hu7E6SVG variant, His at LCV position 98 (L3 06); screened as IgG in Expi293 supernatant
- binding result [1]: no binding (tested: 50 nM)

B10: MYT11764 (antibody, V domains shown)
VH: B3 VH
VL: B3 VL with E59H, H99P
notes: hu7E6SVG variant, His at LCV position 59 (L2 06); screened as IgG in Expi293 supernatant
- binding result [1]: binds

B11: MYT11622 (antibody, V domains shown)
VH: QVQLQQSGSELKKPGASVKVSCKASGYTFTNYGMNWVKQAPGQGLKWMGWINTYTGEPTYTDDFKGRFAFSLDTSVSTAYLQISSLKADDTAVYFCARGGFGSSYWYFDVWGQGSLVTVSS
VL: DIQLTQSPSSLSASVGDRVSITCKASQDVSIAVAWYQQKPGKAPKLLIYSASHRYTGVPDRFSGSGSGTDFTLTISSLQPEDFAVYYCQQHYITPLTFGAGTKVEIK
notes: Sacituzumab variant, His at LCV position 53 (L2 04)
- binding result [2]: binds

B13: MYT13393 (antibody, V domains shown)
VH: B11 VH with D62H
VL: B11 VL with V33H
notes: Sacituzumab HC-LC pairing variant
- binding result [3]: binds

B14: MYT13390 (antibody, V domains shown)
VH: B11 VH with Y32H
VL: B11 VL with V33H
notes: as for B13
- binding result [3]: binds

B15: MYT11629 (antibody, V domains shown)
VH: B11 VH
VL: B11 VL with H53Y, Y92H
notes: Sacituzumab variant, His at LCV position 92 (L3 04)
- binding result [2]: binds

B16: MYT11623 (antibody, V domains shown)
VH: B11 VH
VL: B11 VL with H53Y, R54H
notes: Sacituzumab variant, His at LCV position 54 (L2 05)
- binding result [2]: binds

B20: MYT13384 (antibody, V domains shown)
VH: B11 VH with Y60H
VL: B11 VL with S30H, S52H, H53Y
notes: as for B13
- binding result [3]: binds

B21: MYT13389 (antibody, V domains shown)
VH: B11 VH with G66H
VL: B11 VL with S30H, S52H, H53Y
notes: as for B13
- binding result [3]: binds

B22: MYT11630 (antibody, V domains shown)
VH: B11 VH
VL: B11 VL with H53Y, I93H
notes: Sacituzumab variant, His at LCV position 93 (L3 05)
- binding result [2]: binds

B23: MYT11628 (antibody, V domains shown)
VH: B11 VH
VL: B11 VL with H53Y, H91A
notes: Sacituzumab variant, Ala at LCV position 91 (L3 03; His in the parent)
- binding result [2]: binds

B24: MYT11625 (antibody, V domains shown)
VH: B11 VH
VL: B11 VL with H53Y, T56H
notes: Sacituzumab variant, His at LCV position 56 (L2 07)
- binding result [2]: binds

B26: MYT13375 (antibody, V domains shown)
VH: B11 VH with G33H
VL: B11 VL with S30H, A51H, H53Y
notes: as for B13
- binding result [3]: binds

B27: MYT13381 (antibody, V domains shown)
VH: B11 VH with G66H
VL: B11 VL with S30H, A51H, H53Y
notes: as for B13
- binding result [3]: binds

B28: MYT13396 (antibody, V domains shown)
VH: B11 VH with K65H
VL: B11 VL with V33H
notes: as for B13
- binding result [3]: binds

B30: MYT11634 (antibody, V domains shown)
VH: B11 VH
VL: B11 VL with H53Y, T97H
notes: Sacituzumab variant, His at LCV position 97 (L3 09)
- binding result [2]: binds

B32: MYT11626 (antibody, V domains shown)
VH: B11 VH
VL: B11 VL with H53Y, Q89H
notes: Sacituzumab variant, His at LCV position 89 (L3 01)
- binding result [2]: binds

B33: MYT11633 (antibody, V domains shown)
VH: B11 VH
VL: B11 VL with H53Y, L96H
notes: Sacituzumab variant, His at LCV position 96 (L3 08)
- binding result [2]: binds

B35: MYT11624 (antibody, V domains shown)
VH: B11 VH
VL: B11 VL with H53Y, Y55H
notes: Sacituzumab variant, His at LCV position 55 (L2 06)
- binding result [2]: binds

Results, then the binder that gave them:

- binding result [1]: binds
B1: MYT11761 (antibody, V domains shown)
VH: B3 VH
VL: B3 VL with S56H, H99P
notes: hu7E6SVG variant, His at LCV position 56 (L2 03); screened as IgG in Expi293 supernatant

- binding result [1]: binds
B2: MYT11767 (antibody, V domains shown)
VH: B3 VH
VL: B3 VL with H94A, H99P
notes: hu7E6SVG variant, Ala in place of His at LCV position 94 (L3 02); screened as IgG in Expi293 supernatant

- binding result [1]: binds
B9: MYT11765 (antibody, V domains shown)
VH: B3 VH
VL: B3 VL with S60H, H99P
notes: hu7E6SVG variant, His at LCV position 60 (L2 07); screened as IgG in Expi293 supernatant

- binding result [3]: binds
B12: MYT13380 (antibody, V domains shown)
VH: B11 VH with K65H
VL: B11 VL with S30H, A51H, H53Y
notes: as for B13

- binding result [3]: binds
B17: MYT13367 (antibody, V domains shown)
VH: B11 VH with G33H
VL: B11 VL with S30H, V33H, H53Y
notes: as for B13

- binding result [2]: binds
B18: MYT11632 (antibody, V domains shown)
VH: B11 VH
VL: B11 VL with H53Y, P95H
notes: Sacituzumab variant, His at LCV position 95 (L3 07)

- binding result [3]: binds
B19: MYT13391 (antibody, V domains shown)
VH: B11 VH with G33H
VL: B11 VL with V33H
notes: as for B13

- binding result [2]: binds
B25: MYT11631 (antibody, V domains shown)
VH: B11 VH
VL: B11 VL with H53Y, T94H
notes: Sacituzumab variant, His at LCV position 94 (L3 06)

- binding result [3]: binds
B29: MYT13397 (antibody, V domains shown)
VH: B11 VH with G66H
VL: B11 VL with V33H
notes: as for B13

- binding result [2]: binds
B31: MYT11627 (antibody, V domains shown)
VH: B11 VH
VL: B11 VL with H53Y, Q90H
notes: Sacituzumab variant, His at LCV position 90 (L3 02)

- binding result [3]: binds
B34: MYT13394 (antibody, V domains shown)
VH: B11 VH with D63H
VL: B11 VL with V33H
notes: as for B13
